According to the nanobody polyreactivity screen of Harvey et al. (2022):

test: yeast display, Sf9 membrane polyspecificity reagent, FACS + sequencing; frameworks hold sequencing errors
Outline: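 A nanobody's polyreactivity label depends on the gate it was sorted from. Yeast display cells were stained with 10% biotinylated, detergent-solubilized Sf9 membrane reagent for 1 hour at 4 °C, enriched on streptavidin microbeads and sorted by FACS. The low and high (top ~1%) gates were set on anti-HA fluorescence for expression and streptavidin fluorescence for reagent binding.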

| Sequence | polyreactivity (PSR sort gate) |
| --- | --- |
| QVQLVESGGGLVQAGGSLRLSCAASGSIFRSNTMGWYRQAPGKERELVASITRGGSTNYADSVKGRFTISRDNAKNTVYLQMNSLKPEDTAVYYCIARRTVRYYFSYGYWGQGTQVTVSS | high polyreactivity |
| QVQLVESGGGLVQAGGSLRLSCAASGSIFRSYAMGWYRQAPGKERELVAAIRSDGRTNYADSVKGRFTISRDNAKNTVYLQMNSLKPEDTAVYYCAAKAYYSYWRSMDYWGQGTQVTVSS | low polyreactivity |
| QVQLVESGGGLVQAGGSLRLSCAASGSIFRSYAMGWYRQAPGKERELVAAISRRGGSTYYADSVKGRFTISRDNAKNTVYLQMNSLKPEDTAVYYCAADRTGPYDYWGQGTQVTVSS | high polyreactivity |
| QVQLVESGGGLVQAGGSLRLSCAASGSIFRSYAMGWYRQAPGKERELVAAISSRSGSTYYADSVKGRFTISRDNAKNTVYLQMISLKPEDTAVYYCAAQHRHSYGYWGQGTQVTVSS | high polyreactivity |
| QVQLVESGGGLVQAGGSLRLSCAASGSIFRSYAMGWYRQAPGKERELVAAISSSSGSTYYADSVKGRFTISRDNAKNTVYLQMNSLKPEDTAVYYCAARSRIGNNGYEYWGQGTQVTVSS | low polyreactivity |
| QVQLVESGGGLVQAGGSLRLSCAASGSIFRSYAMGWYRQAPGKERELVAAITFSGGRTYYADSVKGRFTISRDNAKNTVYLQMNSLKPEDTGVYYCNARHRNLAEYDYWGQGTQVTVSS | low polyreactivity |
| QVQLVESGGGLVQAGGSLRLSCAASGSIFRSYAMGWYRQAPGKERELVASISRRGGSTYYADSVKGRFTISRDNAKNTVYLQMNSLKLEDTAVYYCAAVRYNSRVSTTPSEMYYWGQGTQVTVSS | low polyreactivity |
| QVQLVESGGGLVQAGGSLRLSCAASGSIFRSYAMGWYRQAPGKERQLVARISKRGGSTYYADSVKGRFTISRENAKNTVYLQMNSLKPEDSAVYYCNASYFRYRYNRYVYWGQGTQVTVSS | high polyreactivity |
| QVQLVESGGGLVQAGGSLRLSCAASGSIFRSYAMGWYRQAPGNERELVAALSGRGSNTYYADSVKGRFTISRDNAKNTVYLQMNSLKPEDTAVYYGATRRHYGSTRSYDYWGQGTQVTVSS | high polyreactivity |
| QVQLVESGGGLVQAGGSLRLSCAASGSIFRSYAMGWYSPSPGKERELVAAITRSGGSTYYADSVKGRFTISRDNAKNTVYLQMNSLKPEDTAVYYCAAEYYSYTWGWGHGYWGQGTQVTVSS | high polyreactivity |
| QVQLVESGGGLVQAGGSLRLSCAASGSIFRTYVMGWYRQAPGKERELVATIDSTSGSTYYADSVKGRFTISRDNAKNTVYLQMNSLKPEDTAVYYCNVLVYYYYVVKSTYRWYDYWGQGTQVTVSS | high polyreactivity |
| QVQLVESGGGLVQAGGSLRLSCAASGSIFRVYAMGWYRQAPGKERELVAAIRSGGGTNYADSVKGRFTISRDNAKITVYLQMNSLKPEDTAVYYCAREAATDISPGYDYWGQGTQVTVSS | low polyreactivity |
| QVQLVESGGGLVQAGGSLRLSCAASGSIFRVYAMGWYRQAPGKERELVAAISSIVGSTYYADSVKGRFTISRDNAKNTVYLQMNSLKPADTAVYYCNKDGTWPRTGSEYDYWGQGTQVTVSS | low polyreactivity |
| QVQLVESGGGLVQAGGSLRLSCAASGSIFRVYAMGWYRQAPGKERELVAAISVSGGSTNYADSVKGRFTISRDNAKNTVYLQMNSLKPEDTAVYYCNRKQQVSSELDYWGQGTQVTVSS | low polyreactivity |
| QVQLVESGGGLVQAGGSLRLSCAASGSIFRVYAMGWYRQAPGKERELVASISRRGGSTYYADSVKGRFTISRDNAKKTVYLQMNSLKPEETAVYYFAAEFVIGGHGYDYWGQGTQVTVSS | high polyreactivity |
| QVQLVESGGGLVQAGGSLRLSCAASGSIFRVYMGWYRQAPGKERELVATIRWSSGSTYYADSVKGRFTISRDNAKNTVYLQMNSLKPEDTAVYYCAVKGPYYDDYDYWGQGTQVTVSS | low polyreactivity |

| Sequence | polyreactivity (PSR sort gate) |
| --- | --- |
| QVQLVESGGGLVQAGGSLRLSCAASGSIFRWNAMGWYRQAPGKERELVAAIDSGGSTYADSVKGRFTISRDNAKNTVYLQMNSLKPEDTAVYYCAAEIPDEWPYDYWGQGTQVTVSS | low polyreactivity |
| QVQLVESGGGLVQAGGSLRLSCAASGSIFRWNAMGWYRQAPGKERELVAAITWRSSSTYYADSVKGRFTISRDNAKNTVYLQMNSLKPEDTAVYYCNAKRGVQTYANFYGSKYDYWGQGTQVTVSS | high polyreactivity |
| QVQLVESGGGLVQAGGSLRLSCAASGSIFRWYAMGWYRQAPGKERELVAAITWSASRTYYADSVKGRFTISRDNAKNTVYLQMNSLKPEDTAVYYCAKRGWSSVYFHGGFGYKLYDYWGQGTQVTVSS | low polyreactivity |
| QVQLVESGGGLVQAGGSLRLSCAASGSIFRWYAMGWYRQAPGKERELVASITRSGGRTYYADSVKGRFTISRDNAKNTVYLQMNSLKPEDTAVYYCAADYYAYWYRYRYYYWGQGTQVTVSS | high polyreactivity |
| QVQLVESGGGLVQAGGSLRLSCAASGSIFRWYDMGWYRQAPGKERELVAVISKRGGSTYYADSVKGRFSISRDNAKNTVYLQMTSLKPEDTAVYSCAKRYERWQLARLDYWGQGTQVTVSS | high polyreactivity |
| QVQLVESGGGLVQAGGSLRLSCAASGSIFRWYTMGWYRQAPGKERELVAAISRSGGSTYYADSVKGRFTISRDNAKNTVYLQMNRLKPEDTAVYYCAADKFRHPYWDRYIYFHYDYWGQGTQVTVSS | low polyreactivity |
| QVQLVESGGGLVQAGGSLRLSCAASGSIFRYAMGWYRQAPGKEREFVAAITSRGGTTYYADSVKGRFTISRDNAKNTVYLLMNSLKPEDTAVYYCYAHRYATAGSWVVRHDYWGQGTQGTVSS | high polyreactivity |
| QVQLVESGGGLVQAGGSLRLSCAASGSIFRYNAMGWYRQAPGKERELVASISISDGSTYYADSVKGRFTISRDNAKNTVYLQMKSLKPEDTAVYYCAARTRDFYYPYDYWGQGTQVTVSS | low polyreactivity |
| QVQLVESGGGLVQAGGSLRLSCAASGSIFRYNTMGWYRQAPGKERELVAAITSSGGRTYYADSVKGRFTISRDNAKNTVYLQMNSLKPEDTAVYYCAARRSFYGRVYDDQYDYWGQGTQVTVSS | high polyreactivity |
| QVQLVESGGGLVQAGGSLRLSCAASGSIFRYNTMGWYRQAPGKERELVARISSGGSTYYADSVKGRFTISRDNAKNTVYLQMNSLKPEDTAVYYCAAVSRHRGWDRYYWGQGTQVTVSS | high polyreactivity |
| QVQLVESGGGLVQAGGSLRLSCAASGSIFRYNTMGWYRQATGKERELDATITRRGGSTYYADSVKGRFTISRDNAKNTVYLQMNSLKPEDTAVYYCNADNFGGPFNYWGQGTQVTVSS | low polyreactivity |
| QVQLVESGGGLVQAGGSLRLSCAASGSIFRYYAMGWYRPATGKERELVADITSSGGSTYYADSVKGRFTISRDNPKNTVYLQMNSLKREDTAVYYCASLYWFYVYPFTEYDYWGQGTQVTVSS | low polyreactivity |
| QVQLVESGGGLVQAGGSLRLSCAASGSIFRYYAMGWYRQAPGKERELVAAITASSGNTYYADSVKGRFTISRDNAKNTVYLQMNRLKPEDTSVYYCSKQPGISYRHYDYWGLGTQVTVSS | high polyreactivity |
| QVQLVESGGGLVQAGGSLRLSCAASGSIFRYYAMGWYRQAPGKERELVATISWRGGRTNYADSVKGRFTISRDNAKNTVYLQMNSLKPEDTAVYYCAADPVRRPWGVVGGDYWGQGTQVTVSS | high polyreactivity |
| QVQLVESGGGLVQAGGSLRLSCAASGSIFRYYVMGWYRQAPGKEREFVAAISYRGGSTYYADSVKGRFTISRDNAKNTVYLEMNSLKPEDTAVYFCYAVHYRSFWTPGSNDYWGQGTQVTVSS | high polyreactivity |
